Measured values as given in patent US20220112288A1 (published 2022).
Substitutions are numbered along the chain they refer to.

B1: 75110_08A13A (antibody, V domains shown)
VH: EVQLVESGGGLVQPGGSLRLSCAASGFIFSSYWMSWVRQAPGKGLEWVANIKQDGSEKYYMDSVKGRFTISRDNAKNSLYLQMNSLRAEDTAVYYCARDNSYYYYGMDVWGQGTTVTVSS
VL: AIQMTQSPSSLSASVGDRVTITCRASQGIRDDLGWYQQKPGKAPKLLIFAASSLQSGVPSSFSGSGSGTDFTLTISSLQPEDFATYYCLHHYNYPYTFGQGTKLEIK
notes: Tested as antibody purified from AlivaMab Mouse Kappa hybridoma (human V regions, kappa light chain, mouse Fc captured by anti-mouse Fc sensors)
B2: 75110_10K21A (antibody, V domains shown)
VH: EVQLVESGGGLVQPGGSLRLSCAASGFTFSSYWMTWVRQAPGKGLEWVANIKQDGSEKYYVDSVKGRFTISRDNAKNSLYLQMNSLRAEDTAVYYCVRDRYDALDIWGQGTMVTVSS
VL: B1 VL with D31N, G34N, F49Y, S61R, P80A, H90K, H91D
notes: as for B1
B3: 75110_08F20A (antibody, V domains shown)
VH: QVQLQESGPGLVKPSETLSLTCSVSGGSISTYYWSWIRQPAGKGLEWIGRICTTENTNYNPSLKSRVTMSIDSSKNQFSLKLSSVTAADTAVYYCARDLERLNYYGMDVWGQGATVTVSS
VL: DIQMTQSPSSLSASVGDRVTITCQASQDISKYLNWYQQKPGIAPKLLIYDASNLETGVPSRFSGSGSGTDFTFTISSLQPEDFATYYCQQYDSLPITFGQGTRLEIK
notes: as for B1
B4: 75110_14N19A (antibody, V domains shown)
VH: B3 VH with S23T, T31R, T54S, T57P, S62A, I71V, S73T, D98E, A114T
VL: B3 VL with S7F, K31N, I42K, T56S, S65R, Y86F, S93T
notes: as for B1
B5: 75110_08G08A (antibody, V domains shown)
VH: B3 VH
VL: B3 VL with K31N, F83I
notes: as for B1
B6: 75110_13P22A (antibody, V domains shown)
VH: QVQLQQWGAGLLKPSETLSLTCAAYGGSFSGYYWSWIRQSPGKGLEWIGEINQSGNTNYNPSLKSRVTISADTSKNQFSLKLSSVTAADTAVYYCARVLNWFDYWGQGILVTVSS
VL: DIQMTQSPSSVSASVGDRVTITCRASQGISDWLAWYQQKSGKAPDLLIFAASSLQSGVPSRFSGSGSGTDFTLTISSLQPEDFATYYCQQANSFPYTFGQGTKLEIK
notes: as for B1
B7: 75110_07N04A (antibody, V domains shown)
VH: QVQLQESGPGLVKPSETLSLTCSVSGVSSTSFYWSWIRQPAGKGLDWIGRIYTSGSTNYNPSLKSRVTMSVDTSKNQFSLKLSSVTAADTAVYYCARDPGYSDAFAIWGQGTMVTVSS
VL: not shown
notes: as for B1
B8: 75110_14I16A (antibody, V domains shown)
VH: QVQLQESGPGLVKPSETLSLTCTVSNGSISSYYWSWIRQSAGKGLEWIGRIYTSGSTNYNPSLKSRVTMLVDTSKNQFSLKLSSVTAADTAVYYCARDREDYYYYGMDVWGQGTTVTVSS
VL: DIQMTQSPSSLSASVGDRVTITCQASHDISNYLNWYQQKPGKAPKLLLYYASNLETGVPSRFSGSGSGTDFTFTITSLQPEDIGTYSCQQYDNLPLTFGGGTKVEIK
notes: Tested as antibody purified from AlivaMab Mouse Kappa hybridoma (human V regions, kappa light chain, mouse Fc captured by anti-mouse Fc sensors); also called 75110_14116A
B9: 75110_14G10A (antibody, V domains shown)
VH: EVQLVESGGGLVKPGGSLRLSCAASGFTFSSYSMNWVRQAPGKGLEWVSFISSSSSYIYYADSVKGRFTISRDNAKNSLYLQMNSLRAEDTAVYYCARERGDDYGDYEGAFDIWGQGTMVTVSS
VL: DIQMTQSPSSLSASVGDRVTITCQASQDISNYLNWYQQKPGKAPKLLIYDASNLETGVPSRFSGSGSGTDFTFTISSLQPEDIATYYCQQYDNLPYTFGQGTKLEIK
notes: as for B1
B10: 75110_13P21A (antibody, V domains shown)
VH: B6 VH with A24V, Y25S, S40P, Q53H, N56S, Y59C, A71V, K75N, W101Y, I109T
VL: DIQMTQSPSSVSASVGDRVTITCRASPDIANWLAWYQQKPGKAPELLIYAASSLQSGVPSRFSGSGSGTDFTLTISSLQPEDFATYFCQQANSFPLTFGGGTKVESK
notes: as for B1
B11: 75110_12K21A (antibody, V domains shown)
VH: B6 VH with A24V, Y25S, S40P, Q53H, N56S, Y59C, A71V, K75N, W101Y, I109T
VL: B10 VL
notes: as for B1
B12: 75110_13C13A (antibody, V domains shown)
VH: B6 VH with A24V, Y25S, S40P, Q53H, N56S, Y59C, A71V, V92M, W101F, I109T
VL: B10 VL with S7T, D28G, A30S
notes: as for B1
B13: 75110_04F22A (antibody, V domains shown)
VH: EVQLVESGGGLVQPGGSLRLSCAASGFTFSSYDIHWVRQATGKGLEWVSTIGTAGDTYYPGSVKGRFTISRENAKNSLYLQMNSLRAGDTAVYYCARGGYYYYGMDVWGQGTTVTVSS
VL: EIVLTQSPGTLSLSPGERATLSCRASQSVYSSYLAWYQQKPGQAPRLLIYGASSRATGIPDRFSGSGSGTDFTLTISRLEPEDFAVYYCQQFGTSPFTFGPGTKVDIK
notes: Tested as antibody purified from AlivaMab Mouse hybridoma supernatant (captured by anti-mouse IgG Fc)
B14: 75110_01G11A (antibody, V domains shown)
VH: B13 VH with I34M, K75R, Y79F, Y100D
VL: B13 VL with S14F, S28N, V29T, S54N, F92H
notes: as for B13
B15: 75110_01E08A (antibody, V domains shown)
VH: B13 VH with S30N, S31N, I34M, G61A, S70Y, Y100D
VL: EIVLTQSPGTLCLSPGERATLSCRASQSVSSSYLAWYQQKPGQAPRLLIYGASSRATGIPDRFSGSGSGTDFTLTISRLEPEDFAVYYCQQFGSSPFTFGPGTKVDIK
notes: as for B13
B16: 75110_01K10A (antibody, V domains shown)
VH: B13 VH with G10A, S30R, S31N, I34M, Y100D
VL: B13 VL with G9D, V29L, Y30S, S32V, S66T, F92Y, T94S
notes: as for B13
B17: 75110_01N04A (antibody, V domains shown)
VH: B13 VH with S31N, I34M, Y100D, Y101F, M105L
VL: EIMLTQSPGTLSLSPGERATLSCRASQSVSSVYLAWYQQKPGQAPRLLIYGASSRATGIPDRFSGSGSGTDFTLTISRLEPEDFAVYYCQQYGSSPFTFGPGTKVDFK
notes: as for B13
B18: 75110_01J17A (antibody, V domains shown)
VH: B13 VH with I34M, A40G, G55D, K75E, Y100D
VL: B13 VL with T5A, S31I, S77T, T94S, I107F
notes: as for B13
B19: 75110_01A06A (antibody, V domains shown)
VH: EVQLVESGGGLVQPGGSLRLSCAASGFTFSSYWMSWVRQAPGKGLEWVANINEDGNEKYYVDSVKGRLTISRDNAKNSLYLQMNSLRAEDTAVYFCAREGGQWLSLDYWGQGALVTVSS
VL: B6 VL with T20S, D31S, S40P, D45K, L46I, F49Y, A50G, Y96W, L104V
notes: as for B13
B20: 75110_01C18A (antibody, V domains shown)
VH: EVQLVESGGGLIQPGGSLRLSCAASGFTVSSNYMNWVRQAPGKGLEWVSVIYAGDNTYSADSVKGRFTISRDNSNNTLCLQMNSLRAEDTAVYYCAREGGTTGAFDIWGQGTMVTVSS
VL: B6 VL with S30N, D31S, S40P, D45K, F49Y, A91G
notes: as for B13
B21: 75110_02N15A (antibody, V domains shown)
VH: B19 VH with L68F, Y80F, S105A, Y108H
VL: B6 VL with D31S, S40P, D45K, L46F, F49S, A50G, Y96W, L104V, I106F
notes: as for B13
B22: 75110_03D16A (antibody, V domains shown)
VH: B19 VH with E53Q, N56G, L68F, F95Y, A97V, S105A, A113T
VL: B6 VL with D31S, A34T, S40P, D45K, L46F, F49Y, S67F, Y96W, L104V
notes: as for B13
B23: 75110_04K10A (antibody, V domains shown)
VH: B19 VH with E53Q, N56S, L68F, M83L, V93M, F95Y, A113T
VL: DIQMTQSPSSVSASVGDRVTITCRASQGISSWLAWYQQKPGKAPKVLIYGVSSFQSGVPSRFSGSGSGTDFILTISSLQPEDFATYYCQQANSFPWTFGQGTKVEIK
notes: as for B13
B24: 75110_01D24A (antibody, V domains shown)
VH: QVQLQQWGAGLLKPSETLSLTCAVYGGSFSGYYWSWIRQPPGKGLEWIGEINHSGSTNYNPSLKSRVTISVDTSENQFSLKLNSVTAADTAVYYCARLVNWFDPWGQGTLVTVSS
VL: B6 VL with D1E, G28D, D31N, S40P, D45N, S56T, E81D, T97S, K103N, E105G
notes: as for B13
B25: 75110_03L12A (antibody, V domains shown)
VH: B24 VH with K81T, N83I, A96V, V99I
VL: B6 VL with G28D, D31N, S40P, D45K, E81D, K103N, E105G
notes: as for B13

target: T1, Recombinant human CD4 (R&D Systems, Cat. 10327-CD) (human, UniProt P01730 26-390, limits assumed); assay: BLI (Octet Red384), purified antibody on anti-mouse Fc sensors, human CD4 100/50/25 nM, global 1:1 fit;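 further: antibodies loaded at 10 µg/mL, curves fitted across association and dissociation phases, with an unrelated mouse-derived antibody serving as internal reference control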
T1 construct: Bought protein; also called huCD4

Binder	Kd [nM]	Response	koff [s⁻¹]	kon [M⁻¹ s⁻¹]
B1	6.6	0.12	0.00078	120000
B2	3.1	0.2	0.00049	160000
B3	8.4	0.22	0.0014	170000
B4	11	0.17	0.0014	130000
B5	20	0.15	0.0035	180000
B6	14	0.16	0.0012	86000
B7	< 0.001	0.2	< 1e-07	84000
B8	10	0.14	0.0017	160000
B9	0.38	0.19	0.00019	500000
B10	3	0.17	0.00029	95000
B11	1.8	0.22	0.00021	110000
B12	11	0.21	0.0013	120000

target: T2, Recombinant human CD4 (R&D Systems, Cat. 10327-CD) (human, UniProt P01730 26-390, limits assumed); assay: BLI Octet, mAb on anti-mouse Fc sensor, CD4 100/50/25 nM, 1:1 global fit;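 further: antibodies loaded at 10 µg/mL, an unrelated mouse-derived antibody served as internal reference control, association and dissociation phases fitted after Savitzky-Golay smoothing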
T2 construct: Soluble analyte in the Octet assay

Binder	Kd [nM]	Response	koff [s⁻¹]	kon [M⁻¹ s⁻¹]
B13	5.9	0.05	0.00021	35000
B14	1.7	0.11	7.2e-05	42000
B15	0.26	0.14	2e-05	77000
B16	< 0.001	0.05	< 1e-07	23000
B17	2.1	0.08	6.1e-05	28000
B18	2.8	0.09	0.00012	43000
B19	14	0.36	0.0014	100000
B20	24	0.13	0.0047	200000
B21	11	0.25	0.0017	160000
B22	10	0.05	0.0008	78000
B23	110	0.1	0.0042	39000
B24	13	0.27	0.0017	130000
B25	5.5	0.22	0.00076	140000
